T1: Boi1 SH3 (BOI1_YEAST), P38041
T1 chain: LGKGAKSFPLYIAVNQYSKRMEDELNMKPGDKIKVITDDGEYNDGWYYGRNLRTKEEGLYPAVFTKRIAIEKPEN

T2: Rvs167 SH3 (RV167_YEAST), P39743
T2 chain: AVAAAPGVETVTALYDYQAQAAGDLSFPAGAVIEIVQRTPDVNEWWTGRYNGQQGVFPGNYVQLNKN

T3: Myo5 SH3 (MYO5_YEAST), Q04439
T3 chain: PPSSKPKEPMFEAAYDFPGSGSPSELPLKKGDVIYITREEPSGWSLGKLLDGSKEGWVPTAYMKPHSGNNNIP

T4: Yhr016c SH3 (YSC84_YEAST), P32793
T4 chain: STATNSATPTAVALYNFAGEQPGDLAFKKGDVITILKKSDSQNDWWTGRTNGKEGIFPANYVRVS

T5: Yfr024 SH3 (LSB3_YEAST), P43603
T5 chain: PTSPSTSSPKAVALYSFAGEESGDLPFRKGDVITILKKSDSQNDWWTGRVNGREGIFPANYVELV

T6: Boi2 SH3 (BOI2_YEAST), P39969
T6 chain: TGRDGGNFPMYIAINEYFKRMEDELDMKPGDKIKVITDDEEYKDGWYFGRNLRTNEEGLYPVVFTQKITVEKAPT


Assays:
Test in all cases: SPOT array
[1] = molecular target: T1, Boi1 SH3 (BOI1_YEAST), P38041
[2] = molecular target: T2, Rvs167 SH3 (RV167_YEAST), P39743
[3] = molecular target: T3, Myo5 SH3 (MYO5_YEAST), Q04439
[4] = molecular target: T4, Yhr016c SH3 (YSC84_YEAST), P32793
[5] = molecular target: T5, Yfr024 SH3 (LSB3_YEAST), P43603
[6] = molecular target: Sho1 SH3 (SHO1_YEAST), P40073
[7] = molecular target: T6, Boi2 SH3 (BOI2_YEAST), P39969

Sequence of Sho1 SH3 (SHO1_YEAST), P40073 (P40073 295-366): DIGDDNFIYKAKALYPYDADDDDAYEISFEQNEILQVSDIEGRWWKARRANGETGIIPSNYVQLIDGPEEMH

normalised SPOT signal, Boehringer light units (BLU); mean over the file's lines of this peptide [1]	normalised SPOT signal, Boehringer light units (BLU); mean over the file's lines of this peptide [2]	normalised SPOT signal, Boehringer light units (BLU); mean over the file's lines of this peptide [3]	normalised SPOT signal, Boehringer light units (BLU); mean over the file's lines of this peptide [4]	normalised SPOT signal, Boehringer light units (BLU); mean over the file's lines of this peptide [5]	normalised SPOT signal, Boehringer light units (BLU); mean over the file's lines of this peptide [6]	normalised SPOT signal, Boehringer light units (BLU); mean over the file's lines of this peptide [7]	Binder
53.5	10.4	196	2.8	0	42.9	20.4	INIAKAHPNFPIAL [YKL182W 717-730]
4610	82100	377	17200	36800	129	56.9	ISNRRPVPRRPSQP [YPR091C 658-671]
30.1	32.4	113	14.4	38.2	32.9	16.8	ISADKGFPLIPSGY [YLR290C 162-175]
146	38.5	100	44.5	115	61.2	38.8	IRTYKVVPLGPKAG [YBL088C 2501-2514]
121	213	246	84.6	813	94.3	42.4	IMDAKFHPFKPQLF [YMR049C 642-655]
100	50.3	184	33.2	12.1	19	23.2	INGEKASPFLPSSL [YNL023C 312-325]
37.3	73.4	167	14.5	110	14500	11.5	INTFKTLPTKPEMQ [YDL202W 181-194]
43.8	58.4	114	26.9	51.8	29.3	7.7	IPYEKRDPTSPAPL [YLR129W 367-380]
75.5	36.9	149	19.4	24.3	49.4	1.3	INVEREAPMFPVPY [YHR014W 144-157]
227	17600	3670	3210	3560	38.5	29	ILPPRIVPAIPKKA [YNL064C 352-365]
58.4	31.5	140	7.1	58.4	42.9	6.8	INNTRLSPNSPTPP [YER164W 1330-1343]
0	48.3	206	22.7	0	19.4	34	ISHNKLSPSEPILS [YER132C 703-716]
17300	294	82300	167	3260	99.1	26.7	IPAPKLVPPPPRTR [YNR039C 117-130]
92.4	3.5	94.2	71.1	63.9	116	0	ITAEKSAPTSPEVY [YMR219W 1471-1484]
1310	1550	1000	1230	4850	649	646	INNNKMRPHLPPLS [YHR102W 535-548]
107	23.5	86.9	5	19	19.8	12.3	IQQNKQGPKIPFYL [YBR028C 374-387]
